“And” between values parts separate entries of the source, which are not always exact repeats. Identical values can stand only once.
Tests used:
[1] = biological target: amyloid-β in whole brain lysates of Tg2576 mice (human); experiment: non-reducing Tris-Tricine SDS-PAGE with Western blot (SDS-stable bands); whole brain lysates of Tg2576 mice prepared with or without 100 μM TPEN; blots with anti-Aβ (6E10) or anti-apoE; no dithiothreitol or β-mercaptoethanol
[2] = biological target: the molecule itself; experiment: as above

Row | Molecule | stoichiometry N [1] | stoichiometry N [2]
1 | amyloid-β in whole brain lysates of Tg2576 mice (peptide) | 4 and 3 | –
2 | apolipoprotein E in whole brain lysates of Tg2576 mice (natural protein, mouse (endogenous in Tg2576 mouse brain), UniProt P08226 19-311, looked up, Apolipoprotein E endogenous in mouse brain; also called apoE; apoE monomers; source: endogenous, Tg2576 mouse brain lysate) EGEPEVTDQLEWQSNQPWEQALNRFWDYLRWVQTLSDQVQEELQSSQVTQELTALMEDTMTEVKAYKKELEEQLGPVAEETRARLGKEVQAAQARLGADMEDLRNRLGQYRNEVHTMLGQSTEEIRARLSTHLRKMRKRLMRDAEDLQKRLAVYKAGAREGAERGVSAIRERLGPLVEQGRQRTANLGAGAAQPLRDRAQAFGDRIRGRLEEVGNQARDRLEEVREHMEEVRSKMEEQTQQIRLQAEIFQARLKGWFEPIVEDMHRQWANLMEKIQASVATNPIITPVAQENQ | – | 2
